Test results reported in paper PMC2956116 (Structure (London, England : 1993), 2010).

Biological target: the molecule itself
Test: cryo-EM structure

B1: Staphylococcus aureus pyruvate carboxylase (enzyme, S. aureus, UniProt A0A0H3JRU9 1-1150, looked up)
chain: MKQIKKLLVANRGEIAIRIFRAAAELDISTVAIYSNEDKSSLHRYKADESYLVGSDLGPAESYLNIERIIDVAKQANVDAIHPGYGFLSENEQFARRCAEEGIKFIGPHLEHLDMFGDKVKARTTAIKADLPVIPGTDGPIKSYELAKEFAEEAGFPLMIKATSGGGGKGMRIVREESELEDAFHRAKSEAEKSFGNSEVYIERYIDNPKHIEVQVIGDEHGNIVHLFERDCSVQRRHQKVVEVAPSVGLSPTLRQRICDAAIQLMENIKYVNAGTVEFLVSGDEFFFIEVNPRVQVEHTITEMVTGIDIVKTQILVAAGADLFGEEINMPQQKDITTLGYAIQCRITTEDPLNDFMPDTGTIIAYRSSGGFGVRLDAGDGFQGAEISPYYDSLLVKLSTHAISFKQAEEKMVRSLREMRIRGVKTNIPFLINVMKNKKFTSGDYTTKFIEETPELFDIQPSLDRGTKTLEYIGNVTINGFPNVEKRPKPDYELASIPTVSSSKIASFSGTKQLLDEVGPKGVAEWVKKQDDVLLTDTTFRDAHQSLLATRVRTKDMINIASKTADVFKDGFSLEMWGGATFDVAYNFLKENPWERLERLRKAIPNVLFQMLLRASNAVGYKNYPDNVIHKFVQESAKAGIDVFRIFDSLNWVDQMKVANEAVQEAGKISEGTICYTGDILNPERSNIYTLEYYVKLAKELEREGFHILAIKDMAGLLKPKAAYELIGELKSAVDLPIHLHTHDTSGNGLLTYKQAIDAGVDIIDTAVASMSGLTSQPSANSLYYALNGFPRHLRTDIEGMESLSHYWSTVRTYYSDFESDIKSPNTEIYQHEMPGGQYSNLSQQAKSLGLGERFDEVKDMYRRVNFLFGDIVKVTPSSKVVGDMALYMVQNDLDEQSVITDGYKLDFPESVVSFFKGEIGQPVNGFNKDLQAVILKGQEALTARPGEYLEPVDFEKVRELLEEEQQGPVTEQDIISYVLYPKVYEQYIQTRNQYGNLSLLDTPTFFFGMRNGETVEIEIDKGKRLIIKLETISEPDENGNRTIYYAMNGQARRIYIKDENVHTNANVKPKADKSNPSHIGAQMPGSVTEVKVSVGETVKANQPLLITEAMKMETTIQAPFDGVIKQVTVNNGDTIATGDLLIEIEKATD
modifications: biotinylated Lys1144
stoichiometry N: 4
